# Reference: the nanobody polyreactivity screen of Harvey et al. (2022)
# Assay: yeast display, Sf9 membrane polyspecificity reagent, FACS + sequencing; frameworks hold sequencing errors
# Method in brief: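 Synthetic nanobody libraries on Saccharomyces cerevisiae BJ5465 were galactose-induced for 36–48 hours, stained 1 hour at 4 °C with 10% biotinylated, detergent-solubilized Sf9 membrane reagent and enriched on streptavidin microbeads. FACS then separated cells into low and high (top ~1%) gates by anti-HA (expression) and streptavidin (reagent binding) fluorescence. Genes were colony-PCR amplified, MiSeq 2 × 250 sequenced and CDR-length filtered. A clone's polyreactivity label is that of its gate of origin.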
row,Sequence,polyreactivity (PSR sort gate)
1,QVQLVESGGGLVQAGGSLRLSCAASGSTFVSYAMGWYRQAPGKEREFVAAITWSGGSTYYADSVKGRFTISRDNAKNTVYLQMNSLKPEDTAVYDCAAATYRQQWHYYWGQGTQVTVSS,high polyreactivity
2,QVQLVESGGGLVQAGGSLRLSCAASGSTFVSYAMGWYRQAPGKERELVAAIRTTSGSTYYADSVKGRFTISRDNAKNTVYLQMNSLKPEDTAVYYCAAAGRGPSFRRYDYWGQGTQVTVSS,high polyreactivity
3,QVQLVESGGGLVQAGGSLRLSCAASGSTFVSYAMGWYRQAPGKERELVAAISISDSSTYYADSVKGRFTISRDNAKKTVYLQMNSLKPEDTAVYYCNRYDYWGQGTQVTVSS,low polyreactivity
4,QVQLVESGGGLVQAGGSLRLSCAASGSTFVSYAMGWYRQAPGKERELVAAISTSGGTTYYADSVKGRFTISRDNAKNTVYLQMNSLKPEDTAVYYCAAYDFKYKGYDYWGQGTQVTVSS,high polyreactivity
5,QVQLVESGGGLVQAGGSLRLSCAASGSTFVSYAMGWYRQAPGKEREMVASISSGDSTYADSVKGRFTISRDNAKNTVYLQMNSLKREDTAVYYCNVGNEGSYGFPVTYDYWGQGSQVTVSS,low polyreactivity
6,QVQLVESGGGLVQAGGSLRLSCAASGSTFVSYVMGWYRQAHGKERELVATSSGRAGRTYYADSVKGRFTISRDNAKNTVSLQMNSLKPEDTAVYYCNAGQWRYPGLYYYWGQATQVTVSS,high polyreactivity
7,QVQLVESGGGLVQAGGSLRLSCAASGSTFVTNAMGWYRQAPGKERELVAAITSGAGTYYADSVKGRFTISRDNAKNTVYLQMNSLKPEDTAVYYCAARRYYSRGRYRFGYWGQGTQVTVSS,high polyreactivity
8,QVQLVESGGGLVQAGGSLRLSCAASGSTFVTNDMGWYRQAPAKERELVAAISSGTSTNYADSVKGRFTISRDNAKNTVYLQMNSLKPEDTAVYYCAADSLKRYDYWGHGTQVTVSS,low polyreactivity
9,QVQLVESGGGLVQAGGSLRLSCAASGSTFVTYAMGWYRQAPGKERELVAAIDSGGNTNYADSVKGRFTISRDNAKNTVYLQMNSLKPEDTAVYYCAVRPYELNRLDDQPGGDDYWGQGTQVTVSS,low polyreactivity
10,QVQLVESGGGLVQAGGSLRLSCAASGSTFVTYAMGWYRQAPGKERELVATITTSGGSTYYADSVKGRFTISRDNAKNTVYLQMNSLKPEDTAVYYCAADYYSNYSRFDYWGQGTQVTVSS,low polyreactivity
11,QVQLVESGGGLVQAGGSLRLSCAASGSTFVVNAMGWYRQAPGKERELVAAIRGSAGSTYYADSVKGRFTISRDNAKNTVYLQMNSLKPEDTAVYYCAAYYRRYKSKYDYWGQGTQVTVSS,high polyreactivity
12,QVQLVESGGGLVQAGGSLRLSCAASGSTFVVNAMGWYRQAPGKERELVAAIRIIGGSTYYADSVKGRFTISRDNAKNTVYLQMKSLKPEDTAVYYCVYSGYFPHQSKMDYWGQGTQVTVSS,low polyreactivity
13,QVQLVESGGGLVQAGGSLRLSCAASGSTFVVNAMGWYRQAPGKERELVAAITQSGGSTFYADSVKGRFTISRDNAKNTVYLQINSLKPEDTAVYYWGQCTQVTVSS,low polyreactivity
14,QVQLVESGGGLVQAGGSLRLSCAASGSTFVVYAMGWSRQAPGKERELVAAISTSDTSTYYADSVKGRFTISRDNAKNTVYLQMNSLKPEDTAVYYCAADGTYVYINEYEYWGQGTQVTVSS,low polyreactivity
15,QVQLVESGGGLVQAGGSLRLSCAASGSTFVWNAMGWYRQAPGQERELVAAITWSGGSTYYADSVKGRFTISRDNAKNTVYLQMNSLIPEDTAVYYGNAGPVVRRWDAVGYDYWGQGTQVTVSS,low polyreactivity
16,QVQLVESGGGLVQAGGSLRLSCAASGSTFVYNAMGWYRQAPGKEREFVAVINWSGGRTYADSVKGRFTISRDNAKNTVYLQMNSLKPEDTAVYYCNARRRTGYRPAMDYWGQGTQVTVSS,high polyreactivity

row,Sequence,polyreactivity (PSR sort gate)
1,QVQLVESGGGLVQAGGSLRLSCAASGSTFVYNAMGWYRQAPGKERELVAAIRTTGTGTYYADSVKGRFTISRDNAKNTVYLQMNSLKPEDTAVYYCATDYNYWKLDFGYWGQGTQVTVSS,high polyreactivity
2,QVQLVESGGGLVQAGGSLRLSCAASGSTFVYNAMGWYRQAPGKERELVAAITNSGSTYYADSVKGRFTISRDNAKNTVYLQMNSLKPEDTAVYDCAARSRVYWARSGYWGQGTQVTVAS,low polyreactivity
3,QVQLVESGGGLVQAGGSLRLSCAASGSTFVYYAMGSYIQAPGKERELVAAISSGGNTKYADSVKGRFTISRDNAMNTVYLHMNRLKPEDTAVYYCARETQSYFDHDYWGQGTQVTVSS,low polyreactivity
4,QVQLVESGGGLVQAGGSLRLSCAASGSTFVYYAMGWYRKAPGKERELVAAITSSGGSTHYADSVKGRFTISRDNAKNTVYLQMNSLKPEDTAVYYCAVGALGVYGHYGYWGQGTQVTVSS,low polyreactivity
5,QVQLVESGGGLVQAGGSLRLSCAASGSTFVYYAMGWYRQAPGKEREFVAAINGGGRTNYADSVKGRFTISRDNAKNTVYLQMNSLKPEDTAVYDCAADGLSNVRQMDYWGQGTQVTVSS,low polyreactivity
6,QVQLVESGGGLVQAGGSLRLSCAASGSTFVYYAMGWYRQAPGKEREFVAGISRSGGSTYYADSVKGRFTISRDNAKNTVYLQMNSLIPEDTAVYYCNARGGLPKYGYWGQGTQVTVSS,high polyreactivity
7,QVQLVESGGGLVQAGGSLRLSCAASGSTFVYYAMGWYRQAPGKERELVAAIRYSGASTYYADSVKGRFTISRDNAKNTVYLQMNSLKPEDTAVYYCAASSRTFGYKYYYWGQGTQVTVSS,high polyreactivity
8,QVQLVESGGGLVQAGGSLRLSCAASGSTFVYYAMGWYRQAPGKERELVAASTYADSVKGRFTISRDNAKNTVYLQMNSLKPEDTAVYYCAADFVSAYFTIYDYWGQGTQVTVSS,low polyreactivity
9,QVQLVESGGGLVQAGGSLRLSCAASGSTFVYYAMGWYRQAPGKERELVAVISDDGGTYYADSVKGRFTISRDNAKNTVYLQMNSLKPEDTAVYYCAADPYWFFPHYDSWGQGTQVTVSS,low polyreactivity
10,QVQLVESGGGLVQAGGSLRLSCAASGSTFVYYAMVWYRQAPGKERELVAAITGSVDSTYYADSVKGRFTISRDNAKNTVYLQMNSVKPEDTAVYYCAADTYSTYWGQGTQVTVSS,low polyreactivity
11,QVQLVESGGGLVQAGGSLRLSCAASGSTFVYYDMGWFRQAPGKERELVASISWSGGSTRYADSVKGRFTISRDNAKNTVYLQMNSLKPEDTAVYYCNKSNPDYDGLAIHAFDYWGQGTQVTVSS,low polyreactivity
12,QVQLVESGGGLVQAGGSLRLSCAASGSTFVYYDMGWYRQAPGKERELVAAITGSVDSTYYADSVKGRFTISRDNAKNTVYLQMNSLKPEDTAVYYCAADTYSTYWGQGTQVTVSS,low polyreactivity
13,QVQLVESGGGLVQAGGSLRLSCAASGSTFVYYDMGWYRQAPGQERELVATINGSGSRTNYADSVKGRFTISRDYAKNTVYLQMNSLKPEDTAVYYCAADYISYLVAGGYEDDYWGQVTQVTVSS,low polyreactivity
14,QVQLVESGGGLVQAGGSLRLSCAASGSTFVYYTMGWYRQAPGKERELVAAINNGGSTYYADSVKGRFTISRDNAKNTVYLQMNSLKPEDTAFYYCARFTSRVSKYYWGQGSQVTVSS,low polyreactivity
15,QVQLVESGGGLVQAGGSLRLSCAASGSTFVYYVMGWYRQAPGKERELVAAISWSDDSTYYADSVKGRFTISRDNAKNTVYLQMNSLKAEDTAVYYCAATGYPFYTSGDIEYYYWGQGTQVTVSS,low polyreactivity
16,QVQLVESGGGLVQAGGSLRLSCAASGSTFWAYAMGWYRQAPGKERELVATITWSVGGTYYADSVKGRFTISRDNAKNTVYLQMNSLKPEDTAVYYCATDAYVKGVYEISEDRVDYWGQGTQVTVSS,low polyreactivity
